We go through three substances from patent US20200277400A1.

For assay [1], the target named is meHER2(Lc-Hc):28ζ CAR. Briefly: flow cytometry, T cells pre-bound to meditope peptide, then protein L; untransduced control 0.63%.
Assay [2] has as its target meHER2(Hc-Lc):28ζ CAR. The assay is described as above.
For assay [3], the target named is meHER2(Lc-Hc):28ζ CAR. Put plainly: flow cytometry, T cells pre-bound to meditope peptide, then protein L; untransduced control 7.23%.
Assay [4] has as its target meHER2(Hc-Lc):28ζ CAR. The description is as above.
Assay [5] has as its target meHER2(Hc-Lc):28ζ CAR. Put plainly: flow cytometry, protein L staining of lentivirally transduced primary human T cells; untransduced control 13.16%.
Assay [6] concerns the target Fab (meditope-binding Fab, not further named). Put plainly: method not stated.
Assay [7] has as its target meHER2(Lc-Hc):28ζ CAR. Put plainly: flow cytometry, T cells pre-bound to meditope peptide, then protein L; untransduced control 0.50%.
Assay [8] deals with meHER2(Hc-Lc):28ζ CAR. The assay is described as above.
Sequence of meHER2(Hc-Lc):28ζ CAR (heavy, as listed by the source limits assumed, chain 1 of 2): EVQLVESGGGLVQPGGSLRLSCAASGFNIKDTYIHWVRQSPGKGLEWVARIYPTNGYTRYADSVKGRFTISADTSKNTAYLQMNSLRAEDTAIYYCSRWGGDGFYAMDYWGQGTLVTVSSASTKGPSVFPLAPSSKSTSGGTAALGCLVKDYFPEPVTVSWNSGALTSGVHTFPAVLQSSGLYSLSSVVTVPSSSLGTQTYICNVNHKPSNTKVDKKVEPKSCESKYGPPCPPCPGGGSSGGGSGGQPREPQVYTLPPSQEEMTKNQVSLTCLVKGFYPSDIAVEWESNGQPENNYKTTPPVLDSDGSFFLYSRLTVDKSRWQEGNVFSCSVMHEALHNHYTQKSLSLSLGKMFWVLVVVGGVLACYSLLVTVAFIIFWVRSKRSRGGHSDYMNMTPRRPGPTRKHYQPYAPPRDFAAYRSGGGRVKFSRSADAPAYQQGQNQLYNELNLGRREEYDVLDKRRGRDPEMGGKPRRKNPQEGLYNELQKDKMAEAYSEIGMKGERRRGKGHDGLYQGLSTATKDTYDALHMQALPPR
Sequence of meHER2(Hc-Lc):28ζ CAR (light, as listed by the source limits assumed, chain 2 of 2): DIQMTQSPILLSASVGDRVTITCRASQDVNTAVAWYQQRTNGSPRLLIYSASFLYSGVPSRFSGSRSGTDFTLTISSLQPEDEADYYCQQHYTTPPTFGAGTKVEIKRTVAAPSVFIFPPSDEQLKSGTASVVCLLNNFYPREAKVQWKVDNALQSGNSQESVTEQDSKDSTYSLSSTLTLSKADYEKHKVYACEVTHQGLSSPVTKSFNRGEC
The target of assay [9] is meHER2(Lc-Hc):28ζ CAR. Briefly: flow cytometry, meditope-AF647 staining of lentivirally transduced primary human T cells; untransduced control 1.83%.
Assay [10] addresses meHER2(Hc-Lc):28ζ CAR. The description is as above.

Sequence of meHER2(Lc-Hc):28ζ CAR (heavy, as listed by the source limits assumed, chain 1 of 2): as the sequence (heavy, as listed by the source limits assumed, chain 1 of 2) above
Sequence of meHER2(Lc-Hc):28ζ CAR (light, as listed by the source limits assumed, chain 2 of 2): as the sequence (light, as listed by the source limits assumed, chain 2 of 2) above

Consider protein L, for which the values for the % of cells Meditope+ Protein L+ (upper right quadrant) with meHER2(Lc-Hc):28ζ CAR [1] and with meHER2(Hc-Lc):28ζ CAR [2] were 43.1% and 42.1%, respectively. Besides, the % of cells Meditope- Protein L+ (lower right quadrant) in the assay with meHER2(Lc-Hc):28ζ CAR [3] is 16.1%; in the assay with meHER2(Hc-Lc):28ζ CAR [4], 4.04%. Besides, the % of cells in the positive gate with meHER2(Hc-Lc):28ζ CAR [5] came out at 51.8%.
As for meditope-protein L fusion (MPL), the estimated half-life of the complex in [6] was over 80 days.
On to meditope-AF647 (peptide), for which the % of cells Meditope+ Protein L- (upper left quadrant) with meHER2(Lc-Hc):28ζ CAR [7] stood at 2.09%; with meHER2(Hc-Lc):28ζ CAR [8], 2.6%. The % of cells in the positive gate in the assay with meHER2(Lc-Hc):28ζ CAR [9] worked out at 57.1%; with meHER2(Hc-Lc):28ζ CAR [10], 54.4%.
